According to the supplement of paper PMC10567573:

B1: KCNG1 (parent)
chain: LFVTVTAVNLSVSTLPSLREEEEQ

Variants of: B1
Experiment: protein stability index of a GFP-peptide fusion (GPS, HEK-293T) (PSI 1-6); higher = more stable
Details: c terminus: a fixed tail appended
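Also: lentivirally expressed fusions sorted by FACS into six bins by GFP to DsRed ratio, PSI derived from sequencing read proportions per bin multiplied by bin number.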

Variant | protein stability index
P16K | 2.5
P16R | 1.75
P16M | 3.14
P16N | 3.87
P16C | 1.65
P16S | 2.05
P16D | 1.19
L10H | 2.44
L10N | 3.48
L10V | 1.9
L10K | 2.47
L10T | 2.03
L10Q | 3.77
L10Y | 1.95
L10S | 2.21
L10G | 2.16
L10R | 3.45
L10P | 2.32
L10F | 3.38
L10W | 2.88
L10M | 2.21
L10I | 3.17
E23C | 2.7
E23D | 1.71
E23Y | 2.93

Variant | protein stability index
E23K | 2.12
E23T | 4.29
E23L | 3.24
V12G | 1.45
V12C | 2.79
V12M | 1.47
V12F | 2.17
V12Q | 1.4
V12A | 2.71
V12W | 2.35
V12E | 2.19
V12Y | 2.08
V12D | 1.71
V12H | 1.53
V12L | 3.1
V12S | 1.85
V12R | 1.89
V12P | 1.6
V12K | 2.44
V12T | 2.05
E20P | 1.7
E20D | 1.67
E20C | 3.25
E20T | 3.53
E20F | 3.08

Variant | protein stability index
E20S | 3.18
E20K | 1.62
E21G | 1.01
E21Y | 3.39
E21H | 2.28
E21N | 3.49
E21V | 1.63
E21R | 2.43
E21K | 2.25
E21P | 2.06
E22P | 2.31
E22Q | 3.16
E22M | 3.4
E22K | 3.13
E22S | 1.89
E22T | 2.14
E22H | 1.61
E22L | 3.04
E22I | 2.19
R19Q | 1.2
R19D | 2.32
R19S | 2.41
R19H | 1.41
R19V | 1.99
R19F | 3.41

Variant | protein stability index
R19N | 1.96
R19L | 2.85
R19C | 2.09
R19E | 1.43
R19K | 3.36
Q24D | 2.28
Q24L | 1.02
Q24E | 1.37
Q24Y | 2.27
Q24M | 2.66
Q24S | 2.44
Q24N | 2.31
Q24K | 1.74
L18N | 2.47
L18T | 3.48
L18R | 1.57
L18D | 2.05
L18P | 2.48
L18Y | 1.35
L18W | 3.02
L18S | 3.17
L18Q | 2.23
L18V | 2.17
L18M | 3.35
L18I | 1.62

Variant | protein stability index
L18A | 3.29
L18H | 2.87
T14K | 1.77
T14M | 2.01
T14S | 1.36
T14Y | 2.34
T14P | 2.61
T14E | 1.99
T14V | 2.13
T14D | 1.52
T14H | 2.56
T14R | 4.33
T14W | 2.87
S11E | 1.72
S11Y | 4.29
S11G | 1.73
S11R | 2.63
S11M | 3.64
S11P | 2.02
S11H | 1.72
L15Q | 1.05
L15P | 2.48
L15V | 1.76
L15G | 1.72
L15T | 3.77

Variant | protein stability index
L15C | 2.81
L15D | 3.09
L15M | 2.51
L15I | 1.36
L15K | 1.62
S17G | 2.51
S17K | 4.4
S17A | 1.55
S17N | 1.7
S17H | 1.26
S17C | 1.79
S17P | 2.55
S17Y | 1.51
S17F | 1.79
S17T | 2.22
S17E | 3.27
S13I | 2.89
S13Y | 3.08
S13F | 1.52
S13L | 2.71
S13D | 1.55
S13Q | 1.78
S13H | 1.29
